According to patent CN114773460A:

Molecular target: 轮状病毒重组蛋白VP8 (recombinant rotavirus VP8, part of the spike protein VP4) (轮状病毒 (rotavirus; strain not stated))
Assay: ELISA, antigen coated at 10 μg/mL, Rot1 in 2-fold dilutions from 10 μg/mL (16 points), anti-His detection, OD450

B1: 纳米抗体Rot1 (nanobody Rot1, fusion protein with C-terminal histidine tag and human influenza hemaggluti (VHH)
VHH: QVQLQESGGGLVQAGGSLRLSCTASGYRFSNLAVGWFRQAPGQEREAVAVIFVGGITYYADSVKGRFTISRDNAKNTVTLQMNNLKPEDTAIYYCAAYVHMYCASQTITRYDYWGQGTQVTVSS
  EC50: 0.195 µg/mL
